Values joined by “and” are separate entries in the source; they are usually repeats but may differ in a detail not shown here. Equal values may be shown once. Non-standard residues stand in square brackets, D forms with d. No end group written: not given here. Abu = CC[C@H](N)C(=O)O
Assays:
HLA-A*0201 = HLA-A*0201 (human); test: competition with 125I probe peptide, purified HLA class I
HLA-A*0101 = HLA-A*0101 (human); test: as above
HLA-B*0702 [1] = biological target: HLA-B*0702 (Human)
HLA-B*0702 [2] = biological target: HLA-B*0702 (Human); test: competition vs 125I probe, purified HLA
HLA-B*5101 = HLA-B*5101 (Human); test: competition vs 125I probe, purified HLA
HLA-A*0301 = HLA-A*0301 (human); test: competition with 125I probe peptide, purified HLA class I
HLA-A*3101 = HLA-A*3101 (human); test: as above
HLA-B*5401 = HLA-B*5401 (Human); test: competition vs 125I probe, purified HLA
HLA-A*1101 = HLA-A*1101 (human); test: competition with 125I probe peptide, purified HLA class I
HLA-A*6801 = HLA-A*6801 (human); test: as above
HLA-B*3501 = HLA-B*3501 (Human); test: competition vs 125I probe, purified HLA
HLA-B*5301 = HLA-B*5301 (Human); test: competition vs 125I probe, purified HLA
HLA-A*0206 [3] = biological target: HLA-A*0206 (Human); test: competition vs 125I probe, purified HLA
HLA-A*0203 = HLA-A*0203 (Human); test: competition vs 125I probe, purified HLA
HLA-A*0206 [4] = biological target: HLA-A*0206 (human); test: competition with 125I probe peptide, purified HLA class I

LLGRDSFEV [LLGRDSFEV mp53.261]
IC50 (HLA-A*0201): 41.7 nM and 27.8 nM

GTDKSVTCTY [57.0126 GTDKSVTCTY p53.117.D3]
IC50 (HLA-A*0101): 42.4 nM

LPENNVLSPL [p53 peptide LPENNVLSPL (position 26, 10 amino acids)]
binding affinity ratio (IC50 of standard peptide / IC50 of test peptide) (HLA-B*0702 [1]): 0.007 ratio

FPPGSTKRAL [48.0196 FPPGSTKRAL (p53)]
IC50 (HLA-B*0702 [2]): 0.79 nM | IC50 (HLA-B*5101): 6110 nM

KVF[Abu]QLAK [1371.18 KVFBQLAK p53.132.V2B4]
IC50 (HLA-A*0301): 846 nM | IC50 (HLA-A*3101): 7500 nM

FPALNKMFCQL [48.0234 FPALNKMFCQL (p53.127.F1)]
IC50 (HLA-B*5401): 500 nM | IC50 (HLA-B*0702 [2]): 0.052 nM | IC50 (HLA-B*5101): 5500 nM

MPEAAPPV [p53 peptide MPEAAPPV (position 66, 8 amino acids)]
binding affinity ratio (IC50 of standard peptide / IC50 of test peptide) (HLA-B*0702 [1]): 0.0028 ratio

RV[Abu]A[Abu]PGRDRK [1371.31 RVBABPGRDRK p53.273.B3B5K11]
IC50 (HLA-A*1101): 200 nM | IC50 (HLA-A*6801): 2500 nM

SPLPSQAM [p53 peptide SPLPSQAM (position 33, 8 amino acids)]
binding affinity ratio (IC50 of standard peptide / IC50 of test peptide) (HLA-B*0702 [1]): 0.0044 ratio

FPALNKMF [48.0055 FPALNKMF (p53.127.F1)]
IC50 (HLA-B*0702 [2]): 0.025 nM | IC50 (HLA-B*3501): 3000 nM | IC50 (HLA-B*5301): 6200 nM

FPQPKKKPI [48.0127 FPQPKKKPI (p53)]
IC50 (HLA-B*0702 [2]): 0.61 nM

FPQPKKKPL [48.0128 FPQPKKKPL (p53)]
IC50 (HLA-B*0702 [2]): 2.3 nM

BVYSPALNR (B at position 1 is alpha-amino butyric acid (in place of cysteine)) [1371.17 BVYSPALNR p53.124.B1V2R9]
IC50 (HLA-A*0301): 25 nM | IC50 (HLA-A*1101): 8.3 nM | IC50 (HLA-A*6801): 14.8 nM

CTTIHYNYM [p53.229 CTTIHYNYM]
IC50 (HLA-A*0206 [3]): 561 nM

KPLDGEYFTL [p53 peptide KPLDGEYFTL (position 321, 10 amino acids)]
binding affinity ratio (IC50 of standard peptide / IC50 of test peptide) (HLA-B*0702 [1]): 0.0055 ratio

TPAAPAPA [p53 peptide TPAAPAPA (position 81, 8 amino acids)]
binding affinity ratio (IC50 of standard peptide / IC50 of test peptide) (HLA-B*0702 [1]): 0.0041 ratio

LPSQAMDDL [p53 peptide LPSQAMDDL (position 35, 9 amino acids)]
binding affinity ratio (IC50 of standard peptide / IC50 of test peptide) (HLA-B*0702 [1]): 0.0038 ratio

HLIRVEGNLRV [p53.193 HLIRVEGNLRV]
IC50 (HLA-A*0203): 83 nM

SV[Abu]MGGMNRR [1371.27 SVBMGGMNRR p53.240.V2B3]
IC50 (HLA-A*0301): 1000 nM | IC50 (HLA-A*1101): 25 nM | IC50 (HLA-A*3101): 621 nM | IC50 (HLA-A*6801): 11.4 nM

CTTIHYNYM [1329.04 CTTIHYNYM p53.229]
IC50 (HLA-A*0206 [4]): 561 nM

FPGTRVRAI [48.0123 FPGTRVRAI (p53.152.F1)]
IC50 (HLA-B*0702 [2]): 1.1 nM | IC50 (HLA-B*5101): 663 nM

— patent US20050196403A1 (published 2005)
